Reference: patent publication US20080311122A1 (AstraZeneca / MedImmune, published 2008)

B1: anti-HMG1 antibody S16 (antibody, V domains shown)
VH: EVQLLESGGGLVQPGGSLRLSCAASGFTFSWYSMLWVRQAPGKGLEWVSYISPSGGFTNYADSVKGRFTISRDNSKNTLYLQMNSLRAEDTAVYYCARWDYNSGWYYDHWGQGTLVTVSS
VL: DIQMTQSPDTLSLSPGERATLSCRASQSVNSRNLAWYQQKPGQAPRLLIYGASTRATGIPDRFSGSVSGTEFTLTISSLQPDDFATYYCQQYNSYFTFGQGTKLEIK
notes: also called ATCC PTA-6259
B2: anti-HMG1 antibody G4 (antibody, V domains shown)
VH: EVQLLESGGGLVQPGGSLRLSCAASGFTFSWYDMTWVRQAPGKGLEWVSSISPSGGYTKYADSVKGRFTISRDNSKNTLYLQMNSLRAEDTAVYYCTTEFYDYLDVWGKGTTVTVSS
VL: DIQMTQSPGTLSLSPGEGATLSCRASQSVSSTYLAWYQQKPGQAPRLLIYEASKRATGTPARFSGSGSGTDFTLSISSLEPEDFAVYYCQHRHNWPPQWTFGQGTKVEVK
notes: also called ATCC PTA-6258
B3: anti-HMG1 antibody S6 (antibody, V domains shown)
VH: EVQLLESGGGLVQPGGSLRLSCAASGFTFSWYDMSWVRQAPGKGLEWVSRISPSGGYTMYADSVKGRFTISRDNSKNTLYLQMNSLRAEDTAVYYCARLEVGATSGGTAFDIWGQGTMVTVSS
VL: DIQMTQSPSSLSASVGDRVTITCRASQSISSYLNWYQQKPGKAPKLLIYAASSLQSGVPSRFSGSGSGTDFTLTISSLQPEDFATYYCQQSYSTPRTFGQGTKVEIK
notes: also called ATCC PTA-6143
B4: anti-HMG1 antibody S2 (antibody, V domains shown)
VH: EVQLLESGGGLVQPGGSLRLSCAASGFTFSGYMMVWVRQAPGKGLEWVSRISPSGGQTGYADSVKGRFTISRDNSKNTLYLQMNSLRAEDTAVYYCAREEGGSYGAFDIWGQGTMVTVSS
VL: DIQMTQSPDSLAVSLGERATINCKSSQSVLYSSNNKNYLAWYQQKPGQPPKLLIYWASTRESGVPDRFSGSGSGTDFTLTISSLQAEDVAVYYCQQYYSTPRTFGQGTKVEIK
notes: also called ATCC PTA-6142

Columns and labels:
[1] = target: T1, recombinant HMG1 purified from E. coli as a calmodulin binding protein (CBP) fusion protein (human, UniProt A9RA84 1-215 (Papio anubis entry)); test: sandwich ELISA: antibody captured on anti-human IgG Fc, rHMG1 2 ug/ml in solution, mouse anti-HMGB1 and anti-mouse IgG-HRP, OD 450
T1 construct: also called rHMG1; rHMGB1
T1 sequence: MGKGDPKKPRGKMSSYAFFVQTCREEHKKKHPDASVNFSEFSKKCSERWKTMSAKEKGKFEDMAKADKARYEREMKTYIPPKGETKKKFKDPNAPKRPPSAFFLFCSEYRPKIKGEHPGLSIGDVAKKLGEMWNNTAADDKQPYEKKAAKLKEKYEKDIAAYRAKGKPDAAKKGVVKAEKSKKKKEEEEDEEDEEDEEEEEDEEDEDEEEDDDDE
Experimental: Sandwich ELISA (soluble HMG1): Immunoplates (EIA/RIA plate, High binding, Costar) were coated with anti human IgG Fc at 10 μg/ml in PBS (pH 7.2) and incubated at 4° C. overnight. The coating reagent was removed and the plates were rinsed briefly with PBS. The plates were then blocked with 4% milk for 1 hour at 37° C. and rinsed with PBS. The anti-HMG1 antibodies were diluted in 4% milk. For serial dilutions, the antibodies were used at a starting concentration of 20 μg/ml. The diluted anti-HMG1 antibodies were then added into plate and incubated for 1 hr at 37° C. The plate was then washed 10 times with PBST (PBS/0.1% tween 20) and incubate with antigen (HMGB1, 2 μg/ml; or 0.7 μg/ml for native HMGB1) in 4% milk and incubated at 37° C. for 1 h. The plate was then wash 10 times and incubated with mouse anti-HMGB1, 1 μg/ml in 4% milk at 37° C. for 1 h. The plate was washed 10 times and incubated with anti-mouse IgG-HRP at 1:1000 at 37° C. for 1 h. The plate was then washed and developed. HRP activity was detected with Sureblue HRP substrate (KPL). Plates were read at 450 nm using a Kinetic Microplate Reader (Molecular Devices).

[2] = target: T2, HMG1 B Box peptide amino acids 91-169; test: ELISA, wells coated with HMG1 B Box peptide 91-169 at 10 ug/ml, anti-human IgG-HRP, OD 450
T2 construct: also called HMG1 peptide 91-169
T2 peptide: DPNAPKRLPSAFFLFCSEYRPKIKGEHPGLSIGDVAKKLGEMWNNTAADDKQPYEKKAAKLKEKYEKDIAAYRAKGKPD
Experimental: The plate was then blocked with 4% milk powder dissolved in PBS at 37° C. for 1 hour. The blocking solution was removed and replaced with human anti-HMG1 antibodies at various concentrations (see FIGS. 5A-B). […] HRP activity was detected with Sureblue HRP substrate (KPL). Plates were read at 450 nm using a Kinetic Microplate Reader (Molecular Devices). […] After washing and blocking with 1% BSA in PBS, the biotinylated peptides were individually added into the avidin coated wells and incubated for 30 min at room temperature. The serial diluted antibody G4, S16 and S6 at the initial concentration at 10 μg/ml were then transferred into the wells followed by adding mouse anti human IgG-HRP conjugate (Pierce). Detection was accomplished by adding 50 μl of tetramethylbenzidine (TMB) substrate (KPL) and the absorbance was read at […].

[3] = target: T3, activated HMG1 prepared from LPS stimulated THP-1 cells (human, UniProt P09429 1-215); test: cell-based or functional assay
T3 sequence (looked up): T1 sequence

[4] = target: T1, recombinant HMG1 purified from E. coli …; test: ELISA, rHMG1 preincubated with antibody, coated RAGE-Fc
Experimental: HMG1 binding to RAGE-Ig by ELISA: 50 μl/well of RAGE-Fc fusion protein at 5 μg/ml in PBS was added to each well of an ELISA plate and incubated overnight at 4° C. The plate was then blocked with 200 μl of 5% milk at 37° C. for 1 hr and washed 3× with PBS/Tween. 50 μl/well of diluted HMGB1 solution. For dose curves, HMGB1 concentrations started at 4 ug/ml in PBS. For antibody blocking the HMGB1 was preincubated in another plate with human anti-HMG1 antibodies or buffer, then transferred to the RAGE-coated plate. The plates were then incubated at room temperature for 2 hours and washed 3×. To detect any HMG1 bound to the immobilized RAGE-Fc a mixture of biotinylated mouse anti-HMG1 mAbs (10D4, 4H11, 3E10 and 5C12) each at 1 ug/ml, total Ab: 4 ug/ml, were added to each well and the plate was incubated for 1 hour at room temperature. The plate was then washed and Strepavidin-HPR was added to each well and incubated 15 min. The plate was then washed 3× and blotted dry. 100 μl of TMB developing agent was added and the plate read at 650 nm. Values were calculated as percent of inhibition with HMG1 alone equal to 0% inhibition. The data in FIG. 9 and summarized in Table 1 represent the average of two separate experiments.

[5] = target: T2, HMG1 B Box peptide amino acids 91-169; test: ELISA, wells coated with HMG1 B Box peptide 91-169 at 10 ug/ml
Outline: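 Biotinylated peptides captured on avidin-coated wells (1% BSA block, 30 min, room temperature), then antibodies added in serial dilution from 10 μg/ml; for the coated-peptide format, plates blocked with 4% milk/PBS 1 h at 37 °C. Bound antibody detected with anti-human IgG-HRP and TMB, absorbance at 450 nm.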

Binder | EC50 (read off the curve) [1] [µg/mL] | binding result [2] | IC50, inhibition of native activated HMG1 stimulated IL-6 release from human PBMC [3] [nM] | percent inhibition of HMG1 binding to RAGE-Fc [4] [%] | binding result [5]
B1 | ~0.08 | binds | 38.9 | ≥ 35 | –
B2 | – | binds | – | – | –
B3 | – | – | – | ≥ 35 | no binding (tested: 10 ug/ml (log 1.00))
B4 | ~0.08 | – | – | ≥ 35 | no binding (tested: 10 ug/ml (log 1.00))
